T1: human prolactin receptor on transfected FDC-P1 cells (human, UniProt P16471 25-622)
T1 sequence (looked up): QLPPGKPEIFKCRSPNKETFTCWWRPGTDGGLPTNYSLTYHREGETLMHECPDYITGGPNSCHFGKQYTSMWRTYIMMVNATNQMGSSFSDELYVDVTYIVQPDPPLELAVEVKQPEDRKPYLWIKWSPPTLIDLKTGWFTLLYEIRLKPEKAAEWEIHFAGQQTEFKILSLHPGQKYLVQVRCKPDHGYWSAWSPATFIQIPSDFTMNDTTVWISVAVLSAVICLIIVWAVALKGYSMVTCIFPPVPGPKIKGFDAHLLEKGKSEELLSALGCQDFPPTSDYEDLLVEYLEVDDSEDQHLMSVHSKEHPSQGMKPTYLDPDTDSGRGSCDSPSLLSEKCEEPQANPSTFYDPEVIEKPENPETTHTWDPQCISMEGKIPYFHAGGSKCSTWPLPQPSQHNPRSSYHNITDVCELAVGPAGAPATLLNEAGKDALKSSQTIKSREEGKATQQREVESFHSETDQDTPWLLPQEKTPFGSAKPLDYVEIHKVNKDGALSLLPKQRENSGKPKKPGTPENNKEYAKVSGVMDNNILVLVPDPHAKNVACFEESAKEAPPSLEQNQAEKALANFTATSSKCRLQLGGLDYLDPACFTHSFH

T2: extracellular domain of the human prolactin receptor (human, UniProt P16471 25-234)
T2 construct: extracellular domain; also called extracellular domain of the human lactogenic receptor; lactogenic receptor
T2 sequence (looked up): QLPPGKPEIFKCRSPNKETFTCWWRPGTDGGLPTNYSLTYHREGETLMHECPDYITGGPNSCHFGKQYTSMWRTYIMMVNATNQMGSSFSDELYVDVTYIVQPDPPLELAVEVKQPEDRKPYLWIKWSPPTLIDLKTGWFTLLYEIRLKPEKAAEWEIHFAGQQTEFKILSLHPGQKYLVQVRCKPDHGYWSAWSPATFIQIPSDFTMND


How the values were obtained:
[1] = target: human prolactin receptor on transfected FDC-P1 cells (human) (UniProt P16471); assay: cell-based or functional assay
[2] = target: growth hormone receptor (FDC-P1 somatotrophic assay); assay: cell-based or functional assay
[3] = target: T1, human prolactin receptor on transfected …; assay: cell-based or functional assay
[4] = target: T2, extracellular domain of the human …; assay: SPR (BIACORE 3000), prolactin coupled to the chip through Cys 158, receptor ECD 50-800 nM, induced-fit model, site 1 (ka1)
Procedure: (§1) The extracellular domain of the human lactogenic receptor was flowed across the prolactin-linked chip surface at various concentrations and the binding kinetics followed by the optical bench. Human lactogenic receptor (extracellular domain) concentrations varied between 50 nM and 800 nM. […] A single receptor model was used for G129C human prolactin, where site 2 was blocked by the chemistry employed to couple the protein to the chip surface.
(§2) Rate constants were calculated from the association and dissociation curves, respectively, with concentrations of the extracellular domain of the human lactogenic receptor (50, 80, 100, 200, 500 and 800 nM).

[5] = target: T2, extracellular domain of the human …; assay: SPR (BIACORE 3000), prolactin coupled to the chip through Cys 158, receptor ECD 50-800 nM, induced-fit model, site 2 (KD2)
Procedure: as §1, §2

[6] = target: T2, extracellular domain of the human …; assay: SPR, saturating equilibrium at 100 µM receptor ECD (FIG. 10, lower panel)
Procedure: Experiments were then performed in studies that measured the maximal binding of lactogenic receptor (the extracellular domain of the prolactin receptor prepared by recombinant DNA technology). The various prolactins were bound with high concentrations (100 μM) of extracellular domain of the human prolactin receptor.

[7] = target: T2, extracellular domain of the human …; assay: SPR (BIACORE 3000), prolactin coupled to the chip through Cys 158, receptor ECD 50-800 nM, induced-fit model, site 1 (KD1)
Procedure: as §1, §2

[8] = target: T2, extracellular domain of the human …; assay: SPR (BIACORE 3000), prolactin coupled to the chip through Cys 158, receptor ECD 50-800 nM, induced-fit model, site 2 (kd2)
Procedure: as §1, §2

[9] = target: T2, extracellular domain of the human …; assay: SPR (BIACORE 3000), prolactin coupled to the chip through Cys 158, receptor ECD 50-800 nM, induced-fit model, site 2 (ka2)
Procedure: as §1, §2

[10] = target: T2, extracellular domain of the human …; assay: SPR (BIACORE 3000), prolactin coupled to the chip through Cys 158, receptor ECD 50-800 nM, induced-fit model, site 1 (kd1); site 1 (kd1), prolactin coupled through Cys 158
Procedure: as §1, §2

[11] = target: T2, extracellular domain of the human …; assay: SPR (BIACORE 3000), prolactin coupled to the chip through residue 129 (site 2 blocked), receptor ECD 50-800 nM, single-site model, site 1 (ka1)
Procedure: as §1, §2

[12] = target: T2, extracellular domain of the human …; assay: SPR (BIACORE 3000), prolactin coupled to the chip through residue 129 (site 2 blocked), receptor ECD 50-800 nM, single-site model, site 1 (KD1)
Procedure: as §1, §2

[13] = target: T2, extracellular domain of the human …; assay: SPR (BIACORE 3000), prolactin coupled to the chip through residue 129 (site 2 blocked), receptor ECD 50-800 nM, single-site model, site 1 (kd1)
Procedure: as §1, §2

Row | Molecule | ED50 (nM), FDC-P1 somatotrophic assay [2] [nM] | ED50 (nM), FDC-P1 lactogenic assay (cell proliferation, Alamar blue) [3] [nM] | Relative fold loss of activity, FDC-P1 lactogenic assay [3] [fold] | further results
1 | wild-type recombinant human growth hormone (from UniProt P01241 27-217) (ligand) | 0.0712 |  |  | ED50 (nM), FDC-P1 lactogenic assay [1]: 1.76 nM
2 | L163F human growth hormone (from UniProt P01241 27-217) (ligand) | 0.235 |  |  | 
3 | Y164E human growth hormone (from UniProt P01241 27-217) (ligand) | 0.151 |  |  | 
4 | L98E human prolactin (ligand) MLPICPGGAARCQVTLRDLFDRAVVLSHYIHNLSSEMFSEFDKRYTHGRGFITKAINSCHTSSLATPEDKEQAQQMNQKDFLSLIVSILRSWNEPLYHEVTEVRGMQEAPEAILSKAVEIEEQTKRLLEGMELIVSQVHPETKENEIYPVWSGLPSLQMADEESRLSAYYNLLHCLRRDSHKIDNYLKLLKCRIIHNNNC |  | 63.1 | 87.7 | 
5 | F50E human prolactin (ligand) MLPICPGGAARCQVTLRDLFDRAVVLSHYIHNLSSEMFSEFDKRYTHGRGEITKAINSCHTSSLATPEDKEQAQQMNQKDFLSLIVSILRSWNEPLYHLVTEVRGMQEAPEAILSKAVEIEEQTKRLLEGMELIVSQVHPETKENEIYPVWSGLPSLQMADEESRLSAYYNLLHCLRRDSHKIDNYLKLLKCRIIHNNNC |  | 1 | 5 | 
6 | M158C human prolactin (ligand, Cys 158 disulfide-coupled through a thiol to the dextran polymer of the SPR chip surface, Recombinant, expressed in E. coli) MLPICPGGAARCQVTLRDLFDRAVVLSHYIHNLSSEMFSEFDKRYTHGRGFITKAINSCHTSSLATPEDKEQAQQMNQKDFLSLIVSILRSWNEPLYHLVTEVRGMQEAPEAILSKAVEIEEQTKRLLEGMELIVSQVHPETKENEIYPVWSGLPSLQCADEESRLSAYYNLLHCLRRDSHKIDNYLKLLKCRIIHNNNC |  |  |  | kon [4]: 14300 M⁻¹ s⁻¹; Kd [5]: 153 nM; stoichiometry (receptors bound to each prolactin) [6]: 2 receptors per prolactin; Kd [7]: 109 nM; koff [8]: 0.00039 s⁻¹; kon [9]: 2560 M⁻¹ s⁻¹; koff [10]: 0.00157 s⁻¹
7 | L171E human prolactin (ligand) MLPICPGGAARCQVTLRDLFDRAVVLSHYIHNLSSEMFSEFDKRYTHGRGFITKAINSCHTSSLATPEDKEQAQQMNQKDFLSLIVSILRSWNEPLYHLVTEVRGMQEAPEAILSKAVEIEEQTKRLLEGMELIVSQVHPETKENEIYPVWSGLPSLQMADEESRLSAYYNELHCLRRDSHKIDNYLKLLKCRIIHNNNC |  | 5.7 | 8 | 
8 | Y169E human prolactin (ligand) MLPICPGGAARCQVTLRDLFDRAVVLSHYIHNLSSEMFSEFDKRYTHGRGFITKAINSCHTSSLATPEDKEQAQQMNQKDFLSLIVSILRSWNEPLYHLVTEVRGMQEAPEAILSKAVEIEEQTKRLLEGMELIVSQVHPETKENEIYPVWSGLPSLQMADEESRLSAYENLLHCLRRDSHKIDNYLKLLKCRIIHNNNC |  | 64.8 | 90 | 
9 | G129C human prolactin (ligand, Cys 129 disulfide-coupled through a thiol to the dextran polymer of the SPR chip surface, Recombinant, E. coli) MLPICPGGAARCQVTLRDLFDRAVVLSHYIHNLSSEMFSEFDKRYTHGRGFITKAINSCHTSSLATPEDKEQAQQMNQKDFLSLIVSILRSWNEPLYHLVTEVRGMQEAPEAILSKAVEIEEQTKRLLECMELIVSQVHPETKENEIYPVWSGLPSLQMADEESRLSAYYNLLHCLRRDSHKIDNYLKLLKCRIIHNNNC |  |  |  | kon [11]: 19600 M⁻¹ s⁻¹; stoichiometry (receptors bound to each prolactin) [6]: ~1 receptors per prolactin; Kd [12]: 60.5 nM; koff [13]: 0.00119 s⁻¹
10 | ΔF50 human prolactin (ligand) MLPICPGGAARCQVTLRDLFDRAVVLSHYIHNLSSEMFSEFDKRYTHGRGITKAINSCHTSSLATPEDKEQAQQMNQKDFLSLIVSILRSWNEPLYHLVTEVRGMQEAPEAILSKAVEIEEQTKRLLEGMELIVSQVHPETKENEIYPVWSGLPSLQMADEESRLSAYYNLLHCLRRDSHKIDNYLKLLKCRIIHNNNC |  | 0.03 | 2.7 | 

More lines, main results first:

Row | ED50 (nM), FDC-P1 somatotrophic assay [2] [nM] | ED50 (nM), FDC-P1 lactogenic assay (cell proliferation, Alamar blue) [3] [nM] | Relative fold loss of activity, FDC-P1 lactogenic assay [3] [fold] | Molecule | further results
11 | 0.13 |  |  | L163A human growth hormone (from UniProt P01241 27-217) (ligand) | 
12 | 0.186 |  |  | Y160E human growth hormone (from UniProt P01241 27-217) (ligand) | 
13 | 0.234 |  |  | L93E human growth hormone (from UniProt P01241 27-217) (ligand) | 
14 | 0.576 |  |  | F44E human growth hormone (from UniProt P01241 27-217) (ligand) | 
15 |  | 29.5 | 41 | L165E human prolactin (ligand) MLPICPGGAARCQVTLRDLFDRAVVLSHYIHNLSSEMFSEFDKRYTHGRGFITKAINSCHTSSLATPEDKEQAQQMNQKDFLSLIVSILRSWNEPLYHLVTEVRGMQEAPEAILSKAVEIEEQTKRLLEGMELIVSQVHPETKENEIYPVWSGLPSLQMADEESRESAYYNLLHCLRRDSHKIDNYLKLLKCRIIHNNNC | 
16 |  | 1130 | 1570 | H173E human prolactin (ligand) MLPICPGGAARCQVTLRDLFDRAVVLSHYIHNLSSEMFSEFDKRYTHGRGFITKAINSCHTSSLATPEDKEQAQQMNQKDFLSLIVSILRSWNEPLYHLVTEVRGMQEAPEAILSKAVEIEEQTKRLLEGMELIVSQVHPETKENEIYPVWSGLPSLQMADEESRLSAYYNLLECLRRDSHKIDNYLKLLKCRIIHNNNC | 
17 |  | 5.6 | 7.8 | L95E human prolactin (ligand) MLPICPGGAARCQVTLRDLFDRAVVLSHYIHNLSSEMFSEFDKRYTHGRGFITKAINSCHTSSLATPEDKEQAQQMNQKDFLSLIVSILRSWNEPEYHLVTEVRGMQEAPEAILSKAVEIEEQTKRLLEGMELIVSQVHPETKENEIYPVWSGLPSLQMADEESRLSAYYNLLHCLRRDSHKIDNYLKLLKCRIIHNNNC | 

— patent US6995244 (OHIO STATE UNIVERSITY, dated 2006)
